In assay [1] the target is human gonadotropin-releasing hormone receptor (GnRH-R), clone LC27-4 (human).
Assay [2] shares this target. Put plainly: Kd derived by the filing from the IC50 of inhibition of GnRH-stimulated inositol phosphate production in COS-1 cells expressing the human GnRH-R.
The target in assay [3] is T1, mouse gonadotropin-releasing hormone receptor (GnRH-R), clone WZ25 (mouse).
T1 chain: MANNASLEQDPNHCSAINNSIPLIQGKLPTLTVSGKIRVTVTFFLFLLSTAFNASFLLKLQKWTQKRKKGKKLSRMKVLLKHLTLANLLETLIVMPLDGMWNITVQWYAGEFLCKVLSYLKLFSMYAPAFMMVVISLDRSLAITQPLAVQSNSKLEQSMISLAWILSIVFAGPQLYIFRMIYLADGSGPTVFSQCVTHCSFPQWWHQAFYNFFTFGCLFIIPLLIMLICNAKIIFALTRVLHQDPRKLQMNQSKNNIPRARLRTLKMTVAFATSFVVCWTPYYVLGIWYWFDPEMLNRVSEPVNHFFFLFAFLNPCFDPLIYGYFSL
Put plainly: displacement of 125I-GnRH-A by GnRH-A, αT3-1 cell membranes (endogenous mouse receptor). In general terms: Displacement assays read how much labelled ligand stays bound in the presence of the test substance.

Assay [4] addresses T2, human gonadotropin-releasing hormone receptor (GnRH-R), clone LC27-4 (human).
T2 chain: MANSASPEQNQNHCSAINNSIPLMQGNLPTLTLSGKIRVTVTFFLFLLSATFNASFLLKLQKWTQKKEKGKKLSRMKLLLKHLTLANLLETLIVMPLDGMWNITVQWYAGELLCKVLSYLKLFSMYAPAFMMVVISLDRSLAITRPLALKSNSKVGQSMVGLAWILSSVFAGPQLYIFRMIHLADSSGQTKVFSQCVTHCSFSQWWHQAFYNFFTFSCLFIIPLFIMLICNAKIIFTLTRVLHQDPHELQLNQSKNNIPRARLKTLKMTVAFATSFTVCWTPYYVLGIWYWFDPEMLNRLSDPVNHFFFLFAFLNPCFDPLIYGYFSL
The assay is described as follows: displacement of 125I-GnRH-A, membranes of COS-1 cells transfected with the human GnRH-R. On the procedure:
(§1) For studies on inositol phosphate production, 1.8 ×10^5 cells/well (12-well plates) were transfected with 1.5 μg DNA. Cells were assayed 48 hours after transfection.
Cell membranes were prepared from transfected cells with a single centrifugation step as described for rat pituitaries (Millar et al., 1989, J. Biol. Chem. 264:21007–21013).

Assay [5] concerns the target T1, mouse gonadotropin-releasing hormone …. Put plainly: displacement of 125I-GnRH-A by GnRH-A, membranes of WZ25 RNA-injected oocytes. On the procedure:
(§2) For membrane preparation, 500 oocytes were each injected with 2.5 ng synthetic WZ25 RNA. After 48 hours, oocyte membranes were prepared as described (Kobilka et al., 1987, J. Biol. Chem. 262: 15796–15802) and resuspended in binding buffer containing 10 mM HEPES, 1 mM EDTA, and 0.1% bovine serum albumin to give a final concentration of 20 oocytes/ml.
(§3) To further characterize the receptor encoded by this cDNA clone, radioligand binding assays were performed on membranes purified from oocytes injected with the WZ25 RNA transcript.

Assay [6] shares this target. Put plainly: displacement of 125I-GnRH-A by GnRH, membranes of WZ25 RNA-injected oocytes. On the procedure:
as §2, §3

Assay [7] deals with T2, human gonadotropin-releasing hormone …. The assay is described as follows: Kd derived by the filing from the IC50 of inhibition of GnRH-stimulated inositol phosphate production in COS-1 cells expressing the human GnRH-R. As to the method: as §1

Non-standard residues stand in square brackets, D forms with d. No end group written: not given here. d(pGlu) = O=C1CC[C@H](C(=O)O)N1; NMeL = CN[C@@H](CC(C)C)C(=O)O

Take “gonadotropin-releasing hormone (GnRH) (from UniProt P01148) (peptide)”: in assay [1], the EC50 of inositol phosphate production in COS-1 cells transfected with pSV2A-human GnRH-R is 3 nM and the inositol phosphate production in COS-1 cells transfected with pSV2A-human GnRH-R turned out to be 8 fold.

“antagonist 13: [Ac-D-NaI1,D-α-4-ClPhe2, D-Pal3,D-Arg6, D-Ala10]GnRH (from UniProt P01148) (peptide)” gave a Kd in assay [2] of 0.21 nM. The same molecule showed an IC50 of inhibition of GnRH-stimulated (10-8 M) inositol phosphate production in COS-1 cells transfected with pSV2A-human GnRH-R in assay [1] of 6.7e-09 M.

On to QHWSY[dA][NMeL]RP-NHEt (ends and bridges not checked; also: 125I label on the tracer form) [[D-Ala6, NαMe-Leu7, Pro9-NHEt]GnRH (GnRH-A)], for which the dissociation constant (Kd) in assay [3] turned out to be 2.9 nM; in assay [4] it was 0.97 nM; in assay [5], 4.5 nM.

With QHWSYGLRPG [gonadotropin-releasing hormone (GnRH)], the binding result in assay [6] is “binds”.

On to [d(pGlu)][dF][dW]SY[dW]LRPG (ends and bridges not checked) [antagonist 5: [D-pGlu1,D-Phe2,D-Trp3,6]GnRH], for which the Kd in assay [7] worked out at 3.6 nM; in assay [4], 8.4 nM. In addition, the IC50 of inhibition of GnRH-stimulated (10-8 M) inositol phosphate production in COS-1 cells transfected with pSV2A-human GnRH-R in assay [1] came to 1.05e-07 M.

One may read the Kd as the equilibrium constant for the complex coming apart. A higher Kd goes with a looser complex.

Values taken from US5985583, “Cloning and expression of gonadotropin-releasing hormone receptor” (Mount Sinai School of Medicine of The City University of …, dated 1999).
